The record followed here is publication PMC7293203 (Chembiochem : a European journal of chemical biology, 2019).

In data set [1] the target is tryptophan synthase α-subunit TrpA from Zea mays, wild type (Zea mays). Put plainly: activity titration.
The data set “native MS” concerns the molecule itself. Put plainly: native MS.

For orientation: Kd means the free concentration of one partner at which half of the binding sites on the other are occupied at equilibrium, for simple one-to-one binding. A word on the stoichiometry N: it is a count of units in the complex or per binding partner.

B1: tryptophan synthase β-subunit TrpB1 from Zea mays (enzyme)
chain: GRFGGKYVPETLMHALTELENAFHALATDDEFQKELDGILKDYVGRESPLYFAERLTEHYKRADGTGPLIYLKREDLNHRGAHKINNAVAQALLAKRLGKQRIIAETGAGQHGVATATVCARFGLQCIIYMGAQDMERQALNVFRMKLLGAEVRAVHSGTATLKDATSEAIRDWVTNVETTHYILGSVAGPHPYPMMVREFHKVIGKETRRQAMHKWGGKPDVLVACVGGGSNAMGLFHEFVEDQDVRLIGVEAAGHGVDTDKHAATLTKGQVGVLHGSMSYLLQDDDGQVIEPHSISAGLDYPGVGPEHSFLKDIGRAEYDSVTDQEALDAFKRVSRLEGIIPALETSHALAYLEKLCPTLPDGVRVVLNCSGRGDKDVHTASKYLDV
B1 displayed a Kd in data set [1] of 500 nM. In addition, the “stoichiometry N” value in the data set “native MS” was 2.
